The results in this text go back to paper doi:10.1101/292912 (bioRxiv, 2018).

This data set concerns the molecule itself. Kind of data set: dynamic light scattering.

B1: Δ68-269 SaMGT (transmembrane domain-less monoglycosyltransferase from S. aureus) (domain or fragment)
chain: DNVDELRKIENKSSFVSADNMPEYVKGAFISMEDERFYNHHGFDLKGTTRALFSTISDRDVQGGSTITQQVVKNYFYDNDRSFTRKVKELFVAHRVEKQYNKNEILSFYLNNIYFGDNQYTLEGAANHYFGTTVNKNSTTMSHITVLQSAILASKVNAPSVYNINNMSENFTQRVSTNLEKMKQQNYINETQYQQAMSQLNR
On to B1, for which the binding result is recorded as “binds”.
